Like-named read-outs stand apart in the source and are kept apart here.

Holding throughout (assay): cell-based or functional assay
The target of assay [1] is H6tHAtev1S(146-206)LS D179KA199R (Photinus pyralis) (UniProt P60877).
Assay [2] addresses H6tHA1S(146-206)-sfGFP-S (Macaca mulatta (Rhesus macaque)) (UniProt P60877).
Assay [3] addresses H6tHA1S(146-206)-NL-S (Macaca mulatta (Rhesus macaque)) (UniProt P60877).
For assay [4], the target named is H6tHA1V(2-94)-sfGFP-S (Bos taurus (Bovine)) (UniProt P63026).
Assay [5] has as its target H6tHAtev1V(60-94)L (Photinus pyralis).
Assay [6] addresses H6tHAtev1S(146-206)LS D179KN196QQ197NR198K (Photinus pyralis) (UniProt P60877).
For assay [7], the target named is H6tHAtev1S(140-197)L (Photinus pyralis) (UniProt P60877).
Assay [8] deals with H6tHA1V(2-94)-sfGFP-S (Bos taurus (Bovine)) (UniProt P63026). The source holds these as a separate data set.

Chain of UniProt P63026 (P63026 2-94): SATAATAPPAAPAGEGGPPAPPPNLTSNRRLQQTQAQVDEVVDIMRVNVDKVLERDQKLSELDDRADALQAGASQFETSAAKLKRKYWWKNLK

Regarding “BoNT/A1 (recombinant, activated full-length) (from UniProt P0DPI1 2-1296) (enzyme)”, in assay [1], the EC50 of substrate cleavage, endopeptidase assay, JDZ-buffer, 1 h 37°C was 0.4 nM. Moreover, in assay [2], the EC50 of cleavage of generic substrate with reporter sfGFP, JDZ-buffer, 1 h 37°C is 0.03 nM. Also, the EC50 of cleavage of generic substrate with reporter NL, JDZ-buffer, 1 h 37°C in assay [3] came to 0.01 nM.

In assay [4], “BoNT/B1 (recombinant, activated full-length) (from UniProt B1INP5 2-1291) (enzyme)” came in with an EC50 of cleavage of generic substrate with reporter sfGFP, JDZ-buffer, 1 h 37°C of 0.02 nM. In assay [5], this molecule had an EC50 of substrate cleavage, endopeptidase assay, JDZ-buffer, 1 h 37°C of 0.6 nM and a fold increase of EC50 relative to generic H6tHAtev1V(2-94)LS of 10 fold.

Regarding “BoNT/C (recombinant, activated full-length) (from UniProt P18640 2-1291) (enzyme)”, in assay [1], the EC50 of substrate cleavage, endopeptidase assay, JDZ-buffer, 1 h 37°C came to 200 nM. In assay [6], this molecule showed an EC50 of substrate cleavage, endopeptidase assay, JDZ-buffer, 1 h 37°C of 0.6 nM and a fold decrease of EC50 relative to generic H6tHAtev1S(146-206)LS of 16 fold. Further, in assay [2], the EC50 of cleavage of generic substrate with reporter sfGFP, JDZ-buffer, 1 h 37°C stood at 20 nM. The molecule further registered an EC50 of cleavage of generic substrate with reporter NL, JDZ-buffer, 1 h 37°C in assay [3] of 10 nM.

Regarding “BoNT/D (recombinant, activated full-length) (from UniProt P19321 2-1276) (enzyme)”, the EC50 of cleavage of generic substrate with reporter sfGFP, JDZ-buffer, 1 h 37°C in assay [4] came to 1 nM.

As to “BoNT/E1 (recombinant, activated full-length) (from UniProt Q00496 2-1251) (enzyme)”, the EC50 of substrate cleavage, endopeptidase assay, JDZ-buffer, 1 h 37°C in assay [1] was 1000 nM; in assay [6], 1000 nM; in assay [7], 0.2 nM. The molecule also displayed an EC50 of cleavage of generic substrate with reporter sfGFP, JDZ-buffer, 1 h 37°C in assay [2] of 0.1 nM. Moreover, the EC50 of cleavage of generic substrate with reporter NL, JDZ-buffer, 1 h 37°C in assay [3] was 0.2 nM.

B1: BoNT/F1 (recombinant, activated full-length) (enzyme)
chain: MPVVINSFNYNDPVNDDTILYMQIPYEEKSKKYYKAFEIMRNVWIIPERNTIGTDPSDFDPPASLENGSSAYYDPNYLTTDAEKDRYLKTTIKLFKRINSNPAGEVLLQEISYAKPYLGNEHTPINEFHPVTRTTSVNIKSSTNVKSSIILNLLVLGAGPDIFENSSYPVRKLMDSGGVYDPSNDGFGSINIVTFSPEYEYTFNDISGGYNSSTESFIADPAISLAHELIHALHGLYGARGVTYKETIKVKQAPLMIAEKPIRLEEFLTFGGQDLNIITSAMKEKIYNNLLANYEKIATRLSRVNSAPPEYDINEYKDYFQWKYGLDKNADGSYTVNENKFNEIYKKLYSFTEIDLANKFKVKCRNTYFIKYGFLKVPNLLDDDIYTVSEGFNIGNLAVNNRGQNIKLNPKIIDSIPDKGLVEKIVKFCKSVIPRKGTKAPPRLCIRVNNRELFFVASESSYNENDINTPKEIDDTTNLNNNYRNNLDEVILDYNSETIPQISNQTLNTLVQDDSYVPRYDSNGTSEIEEHNVVDLNVFFYLHAQKVPEGETNISLTSSIDTALSEESQVYTFFSSEFINTINKPVHAALFISWINQVIRDFTTEATQKSTFDKIADISLVVPYVGLALNIGNEVQKENFKEAFELLGAGILLEFVPELLIPTILVFTIKSFIGSSENKNKIIKAINNSLMERETKWKEIYSWIVSNWLTRINTQFNKRKEQMYQALQNQVDAIKTVIEYKYNNYTSDERNRLESEYNINNIREELNKKVSLAMENIERFITESSIFYLMKLINEAKVSKLREYDEGVKEYLLDYISEHRSILGNSVQELNDLVTSTLNNSIPFELSSYTNDKILILYFNKLYKKIKDNSILDMRYENNKFIDISGYGSNISINGDVYIYSTNRNQFGIYSSKPSEVNIAQNNDIIYNGRYQNFSISFWVRIPKYFNKVNLNNEYTIIDCIRNNNSGWKISLNYNKIIWTLQDTAGNNQKLVFNYTQMISISDYINKWIFVTITNNRLGNSRIYINGNLIDEKSISNLGDIHVSDNILFKIVGCNDTRYVGIRYFKVFDTELGKTEIETLYSDEPDPSILKDFWGNYLLYNKRYYLLNLLRTDKSITQNSNFLNINQQRGVYQKPNIFSNTRLYTGVEVIIRKNGSTDISNTDNFVRKNDLAYINVVDRDVEYRLYADISIAKPEKIIKLIRTSNSNNSLGQIIVMDSIGNNCTMNFQNNNGGNIGLLGFHSNNLVASSWYYNNIRKNTSSNGCFWSFISKEHGWQEN
The molecule B1 gave an EC50 of cleavage of generic substrate with reporter sfGFP, JDZ-buffer, 1 h 37°C in assay [8] of 0.06 nM.

The values above are taken from patent publication EP3529371B1.
